Laboratory results: PMC9079618, “Evaluating Ylehd, a recombinant epoxide hydrolase from Yarrowia lipolytica as a potential biocatalyst for the resolution of benzyl glycidyl ether” (RSC Advances, 2018)

Legend:
Test in all cases: purified protein
[1] = system: c1ccc(OCC2CO2)cc1; details: 50 mM Tris pH 8.0, 30 °C, 30 min, 2 μg protein
[2] = system: c1ccc(OC[C@@H]2CO2)cc1; details: 50 mM Tris pH 8.0, 30 °C, 30 min, 2 μg protein
[3] = system: c1ccc(OC[C@H]2CO2)cc1; details: 50 mM Tris pH 8.0, 30 °C, 30 min, 2 μg protein
[4] = system: c1ccc(COC[C@H]2CO2)cc1; assay type: biochemical, Yarrowia lipolytica; details: 50 mM Tris pH 8.0, 30 °C, 30 min, 10 μg protein
[5] = system: c1ccc(COC[C@@H]2CO2)cc1; assay type: biochemical, Yarrowia lipolytica; details: 50 mM Tris pH 8.0, 30 °C, 30 min, 2 μg protein
[6] = system: c1ccc(COCC2CO2)cc1; assay type: biochemical, Yarrowia lipolytica; details: 50 mM Tris pH 8.0, 30 °C, 30 min, 2 μg protein

## Ylehd (Yarrowia lipolytica)
[1]
  Km: 600 ± 9 µM
  kcat: 7.34 s⁻¹
  kcat/Km: 12200 M⁻¹ s⁻¹
[2]
  Km: 930 ± 71 µM
  kcat: 15.7 s⁻¹
  kcat/Km: 16600 M⁻¹ s⁻¹
[3]
  Km: 1320 ± 45 µM
  kcat: 33.8 s⁻¹
  kcat/Km: 25500 M⁻¹ s⁻¹
[4]
  Km: 800 ± 10 µM
  kcat: 3.45 ± 0.089 s⁻¹
  kcat/Km: 4310 ± 70 M⁻¹ s⁻¹
[5]
  Km: 270 ± 24 µM
  kcat: 12 ± 0.97 s⁻¹
  kcat/Km: 44700 ± 870 M⁻¹ s⁻¹
[6]
  Km: 150 ± 2 µM
  kcat: 5.73 ± 0.54 s⁻¹
  kcat/Km: 38200 ± 1080 M⁻¹ s⁻¹
